The values below come from article PMC10516654, “Structural and functional characterization of MrpR, the master repressor of the Bacillus subtilis prophage SPβ”.

Experiment in all cases: ITC; ITC: 20 mM HEPES-Na pH 7.5, 200 mM NaCl, 20 mM KCl, 25 C, 20 uM DNA in cell, protein in syringe, one set of sites; EMSA: same buffer plus 50 ug/ml herring sperm DNA, 50 nM DNA, RT 15 min, 6% native PAGE 0.5x TBE
What all share (conditions): protein: recombinant; tags: C-terminal His6; blunt
In general terms: In ITC the heat of successive injections is recorded.

Data set [1] has as its target T1, MrpR G136E (Bacillus subtilis prophage SPβ c2, UniProt O34558 1-325, G136E).
T1 sequence: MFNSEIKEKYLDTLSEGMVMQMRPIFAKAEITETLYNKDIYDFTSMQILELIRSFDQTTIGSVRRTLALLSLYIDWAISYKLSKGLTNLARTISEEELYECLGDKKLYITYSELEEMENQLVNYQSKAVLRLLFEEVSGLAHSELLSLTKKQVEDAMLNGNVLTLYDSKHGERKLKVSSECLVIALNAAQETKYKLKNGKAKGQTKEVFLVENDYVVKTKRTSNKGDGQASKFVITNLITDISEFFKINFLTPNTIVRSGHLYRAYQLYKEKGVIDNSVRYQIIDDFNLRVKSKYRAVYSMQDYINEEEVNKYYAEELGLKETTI

Data set [2] has as its target T2, MrpR Y304F (Bacillus subtilis prophage SPβ, UniProt O34558 1-325, Y304F).
T2 sequence: T1 sequence with E136G, Y304F

Data set [3] concerns the target T3, MrpR K169A (Bacillus subtilis prophage SPβ, UniProt O34558 1-325, K169A).
T3 sequence: T1 sequence with E136G, K169A

Numbering of substitutions follows the chain as printed.

B1: aimR promoter ITC duplex (LC292/LC293) (dsDNA)
DNA 1: GAATTTTAAAGAGATTACAAATACAAAAAATATGTATAAAATAATTGACTCGTAATG
DNA 2: CATTACGAGTCAATTATTTTATACATATTTTTTGTATTTGTAATCTCTTTAAAATTC
What is called Kd is the concentration at which binding is half-saturated. With B1, the Kd in data set [1] was 1690 ± 690 nM; in data set [2] it was 1340 ± 500 nM; in data set [3], 346 ± 150 nM.
